Reference: paper PMC11009412, “Pathogenic mutations of human phosphorylation sites affect protein–protein interactions” (Nature Communications, 2024)

B1: MFAP1 (protein, UniProt P55081 2-439, looked up)
Microfibrillar-associated …: SVPSALMKQPPIQSTAGAVPVRNEKGEISMEKVKVKRYVSGKRPDYAPMESSDEEDEEFQFIKKAKEQEAEPEEQEEDSSSDPRLRRLQNRISEDVEERLARHRKIVEPEVVGESDSEVEGDAWRMEREDSSEEEEEEIDDEEIERRRGMMRQRAQERKNEEMEVMEVEDEGRSGEESESESEYEEYTDSEDEMEPRLKPVFIRKKDRVTVQEREAEALKQKELEQEAKRMAEERRKYTLKIVEEETKKELEENKRSLAALDALNTDDENDEEEYEAWKVRELKRIKRDREDREALEKEKAEIERMRNLTEEERRAELRANGKVITNKAVKGKYKFLQKYYHRGAFFMDEDEEVYKRDFSAPTLEDHFNKTILPKVMQVKNFGRSGRTKYTHLVDQDTTSFDSAWGQESAQNTKFFKQKAAGVRDVFERPSAKKRKTT
B2: PDAP1 (protein, UniProt Q13442 1-181, looked up)
28 kDa heat- and acid-stable …: MPKGGRKGGHKGRARQYTSPEEIDAQLQAEKQKAREEEEQKEGGDGAAGDPKKEKKSLDSDESEDEEDDYQQKRKGVEGLIDIENPNRVAQTTKKVTQLDLDGPKELSRREREEIEKQKAKERYMKMHLAGKTEQAKADLARLAIIRKQREEAARKKEEERKAKDDATLSGKRMQSLSLNK
B3: NPAT (protein, UniProt Q14207 1-1427, looked up)
Protein NPAT: MLLPSDVARLVLGYLQQENLISTCQTFILESSDLKEYAEHCTDEGFIPACLLSLFGKNLTTILNEYVAMKTKETSNNVPAIMSSLWKKLDHTLSQIRSMQSSPRFAGSQRARTRTGIAEIKRQRKLASQTAPASAELLTLPYLSGQFTTPPSTGTQVTRPSGQISDPSRSYFVVVNHSQSQDTVTTGEALNVIPGAQEKKAHASLMSPGRRKSESQRKSTTLSGPHSTIRNFQDPNAFAVEKQMVIENAREKILSNKSLQEKLAENINKFLTSDNNIAQVPKQTDNNPTEPETSIDEFLGLPSEIHMSEEAIQDILEQTESDPAFQALFDLFDYGKTKNNKNISQSISSQPMESNPSIVLADETNLAVKGSFETEESDGQSGQPAFCTSYQNDDPLNALKNSNNHDVLRQEDQENFSQISTSIQKKAFKTAVPTEQKCDIDITFESVPNLNDFNQRGNSNAECNPHCAELYTNQMSTETEMAIGIEKNSLSSNVPSESQLQPDQPDIPITSFVSLGCEANNENLILSGKSSQLLSQDTSLTGKPSKKSQFCENSNDTVKLKINFHGSKSSDSSEVHKSKIEINVLEPVMSQLSNCQDNSCLQSEILPVSVESSHLNVSGQVEIHLGDSLSSTKQPSNDSASVELNHTENEAQASKSENSQEPSSSVKEENTIFLSLGGNANCEKVALTPPEGTPVENSHSLPPESVCSSVGDSHPESQNTDDKPSSNNSAEIDASNIVSLKVIISDDPFVSSDTELTSAVSSINGENLPTIILSSPTKSPTKNAELVKCLSSEETVGAVVYAEVGDSASMEQSLLTFKSEDSAVNNTQNEDGIAFSANVTPCVSKDGGYIQLMPATSTAFGNSNNILIATCVTDPTALGTSVSQSNVVVLPGNSAPMTAQPLPPQLQTPPRSNSVFAVNQAVSPNFSQGSAIIIASPVQPVLQGMVGMIPVSVVGQNGNNFSTPPRQVLHMPLTAPVCNRSIPQFPVPPKSQKAQGLRNKPCIGKQVNNLVDSSGHSVGCHAQKTEVSDKSIATDLGKKSEETTVPFPEESIVPAAKPCHRRVLCFDSTTAPVANTQGPNHKMVSQNKERNAVSFPNLDSPNVSSTLKPPSNNAIKREKEKPPLPKILSKSESAISRHTTIRETQSEKKVSPTEIVLESFHKATANKENELCSDVERQKNPENSKLSIGQQNGGLRSEKSIASLQEMTKKQGTSSNNKNVLSVGTAVKDLKQEQTKSASSLITTEMLQDIQRHSSVSRLADSSDLPVPRTPGSGAGEKHKEEPIDIIKAPSSRRFSEDSSTSKVMVPPVTPDLPACSPASETGSENSVNMAAHTLMILSRAAISRTTSATPLKDNTQQFRASSRSTTKKRKIEELDERERNSRPSSKNLTNSSIPMKKKKIKKKKLPSSFPAGMDVDKFLLSLHYDE
B4: KNOP1 (protein, UniProt Q1ED39 1-458, looked up)
Lysine-rich nucleolar protein …: MITKTHKVDLGLPEKKKKKKVVKEPETRYSVLNNDDYFADVSPLRATSPSKSVAHGQAPEMPLVKKKKKKKKGVSTLCEEHVEPETTLPARRTEKSPSLRKQVFGHLEFLSGEKKNKKSPLAMSHASGVKTSPDPRQGEEETRVGKKLKKHKKEKKGAQDPTAFSVQDPWFCEAREARDVGDTCSVGKKDEEQAALGQKRKRKSPREHNGKVKKKKKIHQEGDALPGHSKPSRSMESSPRKGSKKKPVKVEAPEYIPISDDPKASAKKKMKSKKKVEQPVIEEPALKRKKKKKRKESGVAGDPWKEETDTDLEVVLEKKGNMDEAHIDQVRRKALQEEIDRESGKTEASETRKWTGTQFGQWDTAGFENEDQKLKFLRLMGGFKNLSPSFSRPASTIARPNMALGKKAADSLQQNLQRDYDRAMSWKYSRGAGLGFSTAPNKIFYIDRNASKSVKLED
B5: MSANTD2 (protein, UniProt Q6P1R3 1-559, looked up)
Myb/SANT-like DNA-binding …: MAAPCGSELPANSPLKIPKMEVLSPASPGGLSDGNPSLSDPSTPRGASPLGPGSAAGSGAAASGGLGLGLGGRSAASSSVSFSPGGGGGGAAAAAAAACRGMSWTPAETNALIAVWGNERLVEARYQQLEGAGTVFGSKAPGPAMYERVSRALAELGYERTPSQCRERIKTLRRCYSRVKEHGVGKRKSSYTFEQLEQVFGQGGWDAQPCQPVLINSSGLYQELESDGSTMEDYSQEDWGNHSQDLHGYPTDQELDEIPVTKRTLKIKQESSEEAQKRDIMQNIVQILESVQLKWELFQSWTDFSRLHLSNKLAIFGIGYNTRWKEDIRYHYAEISSQVPLGKRLREYFNSEKPEGRIIMTRVQKMNWKNVYYKFLEITISEARCLELHMEIDWIPIAHSKPTGGNVVQYLLPGGIPKSPGLYAIGYEECIERPLSPHMEQSSLDPGKEGRVDLETLSAQASLQVEIEPTRIIYCYLGIAEVRTLQQCLFLHFQANTKTFSKDWVGINGFLSQNCIVDPGVSPKSIYIKFVEVERDFLSAGSLVECLEKAIGYPLKFNN

What follows are molecules tested on BirA*-FLAG-GATAD1 variants in Flp-In-293 cells (assay: BioID proximity labelling of full-length GATAD1 variants (SILAC)). Details: GATAD1 WT vs S102P, forward experiment (label swap performed, sign inverted against the H/L ratio), log2 of normalized H/L ratio, significant proteins only.
Type: cell-based, human
Text: The GATAD1 gene variants were ordered in a pTwist ENTR Kozak vector from Twist Bioscience. The genes were then transferred to a pDEST_pcDNA5_BirA_FLAG_Nterm vector[97] using the Gateway Clonase II system (Thermo Fisher Scientific). The resulting vectors, pEXPR_GATAD1-WT_N-term_BirA_FLAG, pEXPR_GATAD1-S102P_N-term_BirA_FLAG, pEXPR_GATAD1-S102D_N-term_BirA_FLAG, and pEXPR_GATAD1-S102A_N-term_BirA_FLAG, were used to generate tetracycline-inducible stable Flp-In^TM-293 T-REx cells. A 6-well plate was co-transfected with 0.5 µg of the pEXPR plasmid and 1 µg of the pOG44 Flp-recombinase expression vector (Thermo Fisher Scientific) using 4.5 µg of PEI (Polysciences) as a transfection reagent. The following day, the cells were trypsinized and transferred to a 10 cm dish containing DMEM supplemented with 10% FCS and 200 µg/ml hygromycin B (Invivogen) for selection. The cells were cultured for approximately 18 days with media exchange every 3 days until visible colonies were observed. After around 18 days, the colonies were trypsinized and transferred to another 10 cm dish for further characterization and experiments.
Stable Flp-In^TM-293 cell lines expressing GATAD1 variants were cultured using SILAC light (Lys0, Arg0) and SILAC heavy (Lys8, Arg10) media, as explained in the cell culture section. After full labeling, cells were split into 15 cm dishes and were treated with 1 μg/mL tetracycline for 24 h to induce the expression of GATAD1. After the induction period, cells were incubated with 50 μM biotin overnight for proximity biotinylation. As a control, wild-type GATAD1 cells, without biotin or tetracycline addition, were used. Samples were multiplexed, as shown in Supplementary Fig. 41A with both forward and reverse label swap (n = 2). Cells were then lysed in lysis buffer (50 mM Tris-HCl pH 7.5, 150 mM NaCl, 1% Triton X-100, 1 mM EDTA, 1 mM EGTA, 0.1% SDS) with freshly added protease inhibitors and 1% sodium deoxycholate. To digest the excess DNA, 1 μl of Benzonase was added, and the samples were incubated for 20 min at 37 °C. Biotinylated proteins were enriched for 3 h at 4 °C using streptavidin-sepharose beads (GE Cat# 17-5113-01). Beads were pre-washed twice with 0.01% BSA and twice with lysis buffer. After enrichment, the beads were washed one time with lysis buffer, two times with washing buffer (50 mM HEPES-KOH pH 8.0, 100 mM KCl, 10% glycerol, 2 mM EDTA, 0.1% NP-40), and six times with 50 mM ammonium bicarbonate. Beads were resuspended in ammonium bicarbonate, and an on-bead protein digest with 1 μg of trypsin followed overnight. The next day, the digested proteins were transferred to a fresh tube and were incubated with 10 mM DTT for 30 min at 37 °C and with 55 mM iodoacetamide for 20 min at 37 °C in the dark. Samples were desalted with StageTips.
Peptides were separated using reversed-phase liquid chromatography (EASY nLC II 1200, Thermo Fisher Scientific) with self-made C18 microcolumns (20 cm long) packed with ReproSil-Pur C18-AQ 1.9 μm resin (Dr. Maisch, cat# r119.aq.0001). The chromatography system was coupled online to the electrospray ion source (Proxeon) of an Orbitrap Exploris 480 mass spectrometer (Thermo Fisher Scientific). The mobile phase consisted of buffer A (0.1% formic acid and 5% acetonitrile) and buffer B (0.1% formic acid and 80% acetonitrile). Peptides were eluted using a gradient with increasing concentrations of buffer B over 110 minutes, at a flow rate of 250 nl/min. Mass spectrometry data was acquired in data-dependent mode with settings for one full scan (resolution: 60,000; m/z range: 350–1600; normalized AGC target: 300%; maximum injection time: 10 ms), followed by top 20 MS/MS scans using higher-energy collisional dissociation (resolution: 15,000; m/z range: 200–2000; normalized AGC target: 100%; maximum injection time: 120 ms; isolation width: 1.3 m/z; normalized collision energy: 28%).
Raw files were analyzed with MaxQuant, version 2.0.3.0. […]

Molecule | Log2_Ratio.H.L.normalized.WT_S102P_forward
B1 | 1.854
B2 | 1.555
B3 | 1.209
B4 | 1.624
B5 | 1.423

Same assay, conditions: GATAD1 WT vs S102P, forward experiment, normalized H/L ratio, significant proteins only

Molecule | Ratio.H.L.normalized.WT_S102P_forward
B1 | 0.2766
B2 | 0.3404
B3 | 0.4326
B4 | 0.3245
B5 | 0.373

Same assay, conditions: GATAD1 WT vs S102P, reverse experiment, log2 of normalized H/L ratio, significant proteins only

Molecule | Log2_Ratio.H.L.normalized.WT_S102P_reverse
B1 | 1.161
B2 | 1.001
B3 | 1.214
B4 | 1.083
B5 | 1.156

Same assay, conditions: GATAD1 WT vs S102P, reverse experiment, normalized H/L ratio, significant proteins only

Molecule | Ratio.H.L.normalized.WT_S102P_reverse
B1 | 2.2368
B2 | 2.0014
B3 | 2.3205
B4 | 2.1181
B5 | 2.2282
